B1: HDV Ribozyme (parent)
chain: GGCCGGCAUGGUCCCAGCCUCCUCGCUGGCGCCGGCUGGGCAACAUUCCGAGGGGACCGUCCCCUCGGUAAUGGCGAAUGGGACCCA

Variants of: B1
Assay: self-cleavage, relative activity (ratio to wild type); higher = more cleavage; co-transcriptional

Variant	self-cleavage
G6A G50U	0.708
G5U G52C	0.475
G5U G52A	0.283
G5U G52U	0.277
G6A U46A	0.208
G6A U47A	0.35
G5C G11A	0.0449
G5U C58U	0.277
G5U C58G	0.262
G5U A42C	0.178
G5U A51C	0.277
G5U A16C	0.383
G5U A16U	0.0978
G6C G50C	0.554
G5U G29U	0.0594
G5C C84A	0.142
G5C G50U	0.0361
G6U U37G	0.0554
G5U U60C	0.604
G5U U60A	0.447
G6U U23G	0.178
G6U U9G	0.511
G6C G76A	0.297
G6C G76U	0.604

Variant	self-cleavage
G6C C44G	0.0692
G6A G29U	0.0563
G6C G80U	0.0692
G5U G11U	0.156
G5U G11A	0.18
C7A C15U	0.283
G5U C7U	0
G5U C7G	0.104
G6C A83G	0.189
G5C U20C	0.0875
G6C C22A	0
G6C C14U	0.453
G6C C14A	0
G6C G68U	0.277
G6U C66U	0.645
G6C G54C	0.604
G6C G38C	0
G6U A8G	0.346
G6U A8U	0.403
G6A A87U	0.602
G6U G39A	0.0811
G6C C19G	0.192
G6C C19A	0
G6U G80C	0.0898

Variant	self-cleavage
G5U C36A	0.208
G6A G52A	0.831
G6U G50A	0.372
G6U G50U	0.475
G6C G34A	0.0536
C7A A83G	0.141
C7A A83U	0.0426
G6U G68U	0.554
G5C G31U	0.0405
G6U G73U	0
G6U G73C	0.266
G5C G40U	0.104
G6A C86G	0.802
G6A C86U	0.759
G5U C33G	0.65
C7A A45G	0.705
C7A A45C	0.0462
G6U U65A	0.431
G6U U65C	0.289
G6C A42G	0
G6C U72C	0.0831
G6C U72A	0.0755
G5U A83G	0.0573
G6U U27C	0.237

Variant	self-cleavage
G6U U27G	0.172
C7A A87G	0.521
G5C U12G	0.0831
G5C U12A	0.0791
G5C G59U	0.128
G5U C86G	0.26
G6C U47G	0.158
G6C U47A	0.0875
G5U U47C	0.185
G5C G82C	0
G6U G34C	0.0405
G5C G35U	0.0308
G5C G35A	0.113
G6A G68A	0.704
G6U G38C	0.095
G6A C33U	0.172
G6A C33A	0.0678
G6A C85A	0.895
G6C C49U	0.489
G6C G55C	0.308
G6C G55U	0.177
G6A A51U	0.778
G6C C75U	0.095
G6A U69A	0.525

Variant	self-cleavage
G5U G59A	0.529
G6A C66U	0.521
G6A C66A	0.724
G6C A70G	0.175
G5C G76A	0.415
G6C C30A	0.0415
G5U G17U	0.18
C7A C18U	0.229
G5U G81U	0.166
G6A A42G	0
G6A A83G	0.302
G6A A83C	0.291
G6U G28C	0.0739
G6U G28A	0
G6A G73C	0.312
G6A G73U	0.111
G6U A87G	0.377
G6U A87C	0.592
G5C U9G	0.111
G5C U9C	0.312
G5U G34U	0.0426
G6C G25U	0.166
G6U G25C	0.0426
G5C G29U	0

Variant	self-cleavage
G5U G39A	0.217
G6A C84U	0.628
G6A C84G	0.122
G6A U23A	0.569
G6C C66G	0.332
G6A C14U	0.87
G5U G73C	0.249
C7A A77C	0.115
C7A A77G	0.107
C7A A77U	0.0875
G6C U37A	0.0791
G6C U37C	0.923
G6A G81U	0.0773
G6A G81A	0.282
G6A G81C	0.0378
C7A A51U	0.538
G6A G80C	0.0941
G6U C58U	0.617
G6U C58A	0.672
G6U C58G	0.628
G5C G74C	0.0978
G5C G74U	0.161
G6C G10C	0.0875
G6C G35C	0.0723

Variant	self-cleavage
G6C G35U	0.256
G5C U72C	0.123
G6U C63U	0.763
G6C C18U	0.0923
G6C C18A	0.0791
G5U G80U	0.0405
G6C G11C	0.138
G6C G11A	0
G6C C32A	0.482
G5U C22U	0.158
G6A A70G	0.629
G5C G80C	0.17
G6U C26G	0.364
G5C U27G	0.302
G6A G59A	0.776
G6U C85U	0.646
G6A G38A	0.0554
G6A G38C	0
G6A G67C	0.643
G6C A51C	0.225
G5U C84G	0.262
G5U G55C	0.465
G6U C62G	0.332
